According to patent US20130129845A1, “SCREENING METHOD FOR CHRONIC INFLAMMATION INHIBITORS OR CANCER METASTASIS INHIBITORS USING INHIBITION OF BINDING BETWEEN EMMPRIN AND S100A9 AS INDEX” (priority 2010, published 2013):

B1: soluble EMMPRIN: purified recombinant human EMMPRIN extracellular domain with myc-HA-Flag-6His tag at the C-terminus (protein, UniProt P35613 138-323, looked up)
extracellular domain: EPGTVFTTVEDLGSKILLTCSLNDSATEVTGHRWLKGGVVLKEDALPGQKTEFKVDSDDQWGEYSCVFLPEPMGTANIQLHGPPRVKAVKSSEHINEGETAMLVCKSESVPPVTDWAWYKITDSEDKALMNGSESRFFVSSSQGRSELHIENLNMEADPGQYRCNGTSSKGSDQAIITLRVRSHLA
modifications: extracellular domain C-terminal myc-HA-Flag-6His tag
notes: purified recombinant human EMMPRIN extracellular domain with myc-HA-Flag-6His tag at the C-terminus

How the values were obtained:
[1] = target: T1, EMMPRIN (Homo sapiens, UniProt P35613); experiment: Identification of EMMPRIN-binding proteins by immunoprecipitation and Western blotting; conditions: culture supernatants mixed; HA and Myc antibody; FIG. 6
T1 construct: cDNA coding for the human EMMPRIN extracellular domain (with a myc-HA-Flag-6His tag added at the C-terminus); made in house; host or cells: HEK293 (transfected)
T1 sequence (P35613 138-325 limits assumed): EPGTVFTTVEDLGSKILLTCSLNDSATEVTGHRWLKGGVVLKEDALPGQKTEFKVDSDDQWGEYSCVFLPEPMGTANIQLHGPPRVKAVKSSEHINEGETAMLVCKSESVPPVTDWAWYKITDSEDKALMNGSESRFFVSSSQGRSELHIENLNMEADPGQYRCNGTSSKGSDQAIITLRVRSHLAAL
From the text: EMMPRIN-binding proteins were identified by immunoprecipitation and Western blotting, for confirmation that EMMPRIN is a novel receptor for S100 protein. […] The S100 proteins used were S100A8 and S100A9 protein. HEK293 cells were transfected with plasmids coding for the proteins (with HA tags attached to the C-termini), and the proteins were isolated from the respective culture supernatants.
In order to analyze binding between EMMPRIN and S100A8 and S100A9 protein, the culture supernatants containing the respective proteins were mixed and reacted, and then HA antibody and Myc antibody were used for immunoprecipitation.

[2] = test system: IL-8 (CXCL-8), TNFα, IL1-F9 and CXCL-1 expression; experiment: Cytokine expression in keratinocytes (NHEK) by real-time quantitative PCR; assay type: cell-based, human; conditions: S100A9-added sample with control siRNA (A9/LF); FIG. 4
Experimental: (§1) Using real-time quantitative PCR, it was then investigated whether addition of S100A9 also accelerates expression of IL-8 (CXCL-8), TNFα, IL1-F9 and CXCL-1, and whether suppressing expression of EMMPRIN has any effect on expression of these cytokines. The same method was also used to examine the effect of S100A9 stimulation on MMP-1 and MMP-10 expression.
(§2) Growth-phase NHEK, cultured in EpiLife™-KG2 (Cascade Biologies) were exposed for 3 hours after exchanging to the same culture medium containing and not containing 2 mM calcium chloride and S100A8 or S100A9 (10 μg/ml each), and a MagNA™ Pure mRNA extraction kit and a MagNA Pure™ device (Roche Diagnostics, Tokyo, Japan) were used for extraction of the mRNA. The obtained mRNA was reverse transcripted using SuperScript™ II (Invitrogen Corporation, Carlsbad, Calif., U.S.). Real-time quantitative PCR was performed on a LightCycler high-speed thermal cycler system using a LightCycler FastStart DNA master SYBR green I kit (Roche Diagnostics), according to the manufacturer's instructions. […] The expression level of each gene was quantitatively analyzed using LightCycler analysis software (NPL 11: Morrison T B et al., Biotechniques (1998)24:954-958, 960, 962). […]

[3] = test system: MMP-1 and MMP-10 expression; experiment: MMP expression in keratinocytes by real-time quantitative PCR; assay type: cell-based, human; conditions: FIG. 5
Experimental: as §1, §2

[4] = test system: MMP-1 expression; experiment: Effect of soluble EMMPRIN on MMP expression in keratinocytes; assay type: cell-based, human
From the text: It was therefore investigated whether soluble EMMPRIN actually accelerates expression of MMP.
It is believed that MMP expression was suppressed when soluble EMMPRIN and S100A9 were both present because S100A9 which induces MMP production was scavenged by soluble EMMPRIN, with both forming a bonded complex.

Molecule	binding to EMMPRIN (band in Western blot after immunoprecipitation) [1]	expression of cytokines (IL-8, TNFα, IL1-F9, CXCL-1) on addition of S100A9 [2]	expression of MMP on addition of S100A9 [3]	MMP-1 expression ([4]; S100A9 alone, FIG. 7)	MMP-1-inducing effect ([4]; added to keratinocytes at 0.025, 0.25 and 2.5 μM, FIG. 7)	MMP1 expression-accelerating effect of S100A9 ([4]; both soluble EMMPRIN and S100A9 added to keratinocytes, FIG. 7)	IL-8 expression ([4]; results not shown)	MMP-10 expression ([4]; results not shown)	TNFα expression ([4]; results not shown)
S100A8: EF-hand calcium-binding S100 family protein	only a band for EMMPRIN near 32 kDa was confirmed								
S100A9: EF-hand calcium-binding S100 family protein, added to keratinocytes as stimulus	a band representing their bound form was confirmed near 47.5 kDa	induced expressed of all of the cytokines	accelerated expression of MMP	notably accelerated					
B1					virtually no MMP-1-inducing effect	significantly suppressed	significantly suppressed	significantly suppressed	significantly suppressed
